# Reference: article PMC9910500
# Molecular target: endogenous p32 (ASF/SF2 splicing factor-associated protein) (human (endogenous in HEK293T)) (UniProt Q07021)
# Assay: co-IP
# UniProt Q07021, sequence (Q07021 74-282): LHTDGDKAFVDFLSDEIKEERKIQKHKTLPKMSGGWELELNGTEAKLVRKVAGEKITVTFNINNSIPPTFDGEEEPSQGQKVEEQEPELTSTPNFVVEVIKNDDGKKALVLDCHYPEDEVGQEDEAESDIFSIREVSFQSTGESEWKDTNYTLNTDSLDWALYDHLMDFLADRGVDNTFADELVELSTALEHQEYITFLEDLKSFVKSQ
substance,measurement,value
RNA polymerase II (RNAPII) (complex),increase of RNAPII co-precipitated with p32 in the presence of Tat,50%
